Measurements from US20040086528A1 (PROGENICS PHARMACEUTICALS, published 2004).

Columns and labels:
[1] = molecular target: T1, SF162 gp120 (HIV-1 SF162, UniProt P19550 32-502); test: 125I-MIP-1β competition on activated CD4+ T cells
T1 construct: domain: gp120; also called SF 162 (B)

[2] = molecular target: T2, soluble CD4 (UniProt P01730 26-394); test: 125I-MIP-1β competition on activated CD4+ T cells
T2 construct: also called sCD4

B1: chemokine receptor C-C CKR-5 (human) (receptor)
chain: not shown
notes: whole, on cells; also called CCR-5; CCR5
B1: binds [1]; no binding (tested: 50 µg ml^-1) [2].
